Test results as given in the supplement of paper PMC11811203.

B1: THAP1; numbered along this chain (parent)
chain: MVQSCSAYGCKNRYDKDKPVSFHKFPLTRPSLCKEWEAAVRRKNFKPTKYSSICSEHFTPDCFKRECNNKLLKENAVPTIFLCTEPHDKKEDLLEPQEQLPPPPLPPPVSQVDAAIGLLMPPLQTPVNLSVFCDHNYTVEDTMHQRKRIHQLEQQVEKLRKKLKTAQQRCRRQERQLEKLKEVVHFQKEKDDVSERGYVILPNDYFEIVEVPA

Variants of: B1
Experiment: THAP1 transcriptional activity (GFP+/GFP- enrichment relative to wild-type constructs) (ratio to WT); higher = more THAP1 activity (PSMB5 reporter activation)
Conditions: with PSMB5 promoter-GFP reporter
Summary of the method: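 A lentiviral site-saturation library covering residues 2–213 of human THAP1, with each position changed to all 20 amino acids, was transduced in duplicate at MOI ~0.3 into THAP1-knockout HEK-293T cells with mClover3 knocked in at endogenous PSMB5. Five days later, BFP+ cells were sorted into GFP-dim and GFP-bright bins and variants were counted by Illumina sequencing of genomic DNA amplicons. Activity is the bright/dim read fold change averaged over replicates and divided by the mean of wild-type synonymous constructs.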

THAP1 transcriptional activity: each site, then its substitutions
H185: Y 0.905, S 1.02, F 0.469, T 1.07, L 0.359, A 1.58, M 0.723, G 0.927, W 0.528, I 0.617, P 0.76, N 1.01, C 0.951, R 1.31, V 0.579, K 1.87
K188: Q 0.954, M 0.605, C 0.792, I 0.858, S 0.937, N 1.03, L 0.724, R 1.34, P 0.419, H 0.646, Y 0.683, G 1.05, V 0.826, A 1.14, E 0.506
S194: C 0.978, A 0.876, E 1.11, V 1.06, G 1.35, M 0.847, T 0.865, Q 1.42, P 1.22, W 1.09, H 1.2, R 0.998, L 0.808
V184: Q 1.09, A 1.55, D 1.11, L 0.923, W 0.59, P 0.617, E 0.657, N 1.19, Y 0.826, T 1.1, M 1.22, C 0.742, F 0.913, K 0.901, G 1.29, H 0.994
V183: T 1.02, A 1.11, H 0.519, D 0.954, N 1.17, R 0.844, C 1.04, Y 0.941, W 0.798, F 0.721, L 0.753, S 1.48, G 0.742, P 0.678, M 0.882, E 0.876, Q 1.52
E195: G 1.07, A 0.865, R 1.03, C 0.903, F 0.67, K 1.37, P 0.704, N 0.808, I 0.587, D 1.15, Y 0.588, H 0.381, T 0.674, S 1.16, M 0.781, V 1.02, L 0.714, W 0.467
Y198: D 0.763, P 0.891, F 0.947, G 0.536, L 1.02, K 0.631, R 0.78, E 1.15, C 0.806, V 1.01, W 0.672, T 1.13, M 1.02, Q 1.51, N 1.66, I 1.25
F186: E 1.64, L 1.31, D 1.4, A 1.67, G 1.63, Y 1.36, S 1.93, R 1.31, P 1.48, I 1.08, K 1.59, M 1.32, H 1.25, Q 2.25, C 2.01, T 1.21, V 1.11, W 1.1
I200: D 0.703, L 1.27, T 0.694, M 0.751, A 0.558, R 0.412, H 0.546, W 0.555, E 0.762, C 0.615, K 0.283, V 1.05, Y 0.548, P 0.688, Q 1.09, F 0.819
D191: F 0.695, A 1.23, E 1.36, T 1.12, H 0.987, S 1.21, K 1.22, P 1.02, Y 0.661, M 1.04, L 1.26, C 0.786, G 1.05, W 1.06, I 0.874, R 1.31
K190: D 0.645, H 0.708, M 0.557, Y 0.762, I 1.48, T 1.35, Q 0.807, P 0.901, E 0.903, G 0.878, L 0.835, R 0.923, C 1.06, F 0.86, S 0.846, V 1.21, W 0.724
G197: P 0.913, V 1.8, A 1.19, Q 1.29, H 1.76, R 0.711, N 1.56, D 0.656, I 1.03, K 1.33, T 1.41, M 1.03, W 1.8, E 1
L201: N 0.624, Y 0.773, F 0.809, C 1.03, V 0.62, D 0.836, A 0.829, P 0.855, W 0.749, I 0.905, G 0.813, T 0.898, K 0.887, R 0.9, M 0.715, E 0.953, S 0.906, H 0.804, Q 0.653
E182: T 0.811, F 0.467, I 0.428, W 0.66, P 0.778, H 0.73, R 1.04, C 0.657, Y 0.58, K 1.56, V 0.698, S 0.933, G 0.726, D 1.34
E189: T 1.08, L 1.33, S 1.03, W 1.16, R 0.881, V 0.53, A 1.22, Q 1.11, P 0.761, M 1.09, D 1.2, N 0.878, F 0.853, H 0.949, K 1.1
D192: M 1.27, N 0.81, L 1.22, C 0.816, H 0.799, W 1.13, I 0.817, R 0.932, S 0.615, G 1.19, Q 1.23, V 1.22, E 0.835, T 1.12, F 0.716
V199: G 0.935, Y 0.918, R 0.478, Q 0.623, H 0.609, N 0.42, L 0.908, K 0.555, W 0.95, T 0.697, A 0.703, E 0.701, M 0.728, C 0.947
R196: W 0.521, T 1.47, E 1.34, Y 1.11, Q 1.73, M 0.811, V 1.54, A 0.861, D 0.823, H 1.21, K 0.966, N 0.869, S 1.36
N203: A 1.28, C 0.834
V193: C 1.04, T 1.25, D 0.999, H 0.804, M 0.559, Y 0.789, N 1.24, L 1.21, G 1.08, I 0.883, A 0.82, E 0.835, F 1.06, K 0.694
P202: L 0.884, I 0.585, M 1.1, R 0.824, K 0.636, W 0.577, C 0.722, Y 1.04, Q 0.911, F 0.497, E 1.05, A 1.15, G 0.98, H 1.12, T 0.839, D 0.802, N 0.854, S 0.869
Q187: T 0.99, N 0.727, C 0.911, S 1.45, G 0.874, K 0.719, Y 0.809, V 0.652, H 0.853, A 1.21, L 0.681, E 0.824, F 0.78, D 0.783, R 1.03, I 0.687, P 0.385, W 0.568
